Measurements published in patent US20110217291A1 (ZymoGenetics, published 2011).

B1: FcγRIIA/RIA-CH6 (soluble hybrid receptor: first Ig domain of FcγRIIA followed by second and third Ig domains of FcγRIA, C-terminal six His tag) (receptor)
chain: AAPPKAVLKLEPPWINVLQEDSVTLTCQGARSPESDSIQWFHNGNLIPTHTQPSYRFKANNNDSGEYTCQTGQTSLSDPVHLTVLSEWLLLQVSSRVFTEGEPLALRCHAWKDKLVYNVLYYRNGKAFKFFHWNSNLTILKTNISHNGTYHCSGMGKHRYTSAGISVTVKELFPAPVLNASVTSPLLEGNLVTLSCETKLLLQRPGLQLYFSFYMGSKTLRGRNTSSEYQILTARREDSGLYWCEAATEDGNVLKRSPELELQVLGGSGGHHHHHH
B2: untagged recombinant soluble human FcγRIA (receptor)
chain: QVDTTKAVITLQPPWVSVFQEETVTLHCEVLHLPGSSSTQWFLNGTATQTSTPSYRITSASVNDSGEYRCQRGLSGRSDPIQLEIHRGWLLLQVSSRVFTEGEPLALRCHAWKDKLVYNVLYYRNGKAFKFFHWNSNLTILKTNISHNGTYHCSGMGKHRYTSAGISVTVKELFPAPVLNASVTSPLLEGNLVTLSCETKLLLQRPGLQLYFSFYMGSKTLRGRNTSSEYQILTARREDSGLYWCEAATEDGNVLKRSPELELQVLG
modifications: N-terminal pyro-glutamic acid, converted from the glutamine at position 16
B3: FcγRIIIA/RIA-CH6 (soluble hybrid receptor: first Ig domain of FcγRIIIA followed by second and third Ig domains of FcγRIA, C-terminal six His tag) (receptor)
chain: EDLPKAVVFLEPQWYRVLEKDSVTLKCQGAYSPEDNSTQWFHNESLISSQASSYFIDAATVDDSGEYRCQTNLSTLSDPVQLEVHIGWLLLQVSSRVFTEGEPLALRCHAWKDKLVYNVLYYRNGKAFKFFHWNSNLTILKTNISHNGTYHCSGMGKHRYTSAGISVTVKELFPAPVLNASVTSPLLEGNLVTLSCETKLLLQRPGLQLYFSFYMGSKTLRGRNTSSEYQILTARREDSGLYWCEAATEDGNVLKRSPELELQVLGGSGGHHHHHH

What follows are binders tested against rabbit polyclonal anti-OVA antibodies (assay: cell-based or functional assay).

IC50 (read off the curve); TNF-α secretion by MC/9 mast cells stimulated with anti-OVA/OVA immune complexes | Binder
~2 pmol | B1
~1 pmol | B2
~1 pmol | B3

Target: rabbit polyclonal anti-OVA antibodies
Assay: cell-based or functional assay
Remark: another data set of the same source

IC50 (read off the curve); IL-13 secretion by MC/9 mast cells stimulated with anti-OVA/OVA immune complexes | Binder
~2 pmol | B1
~1 pmol | B2
~1 pmol | B3

Target: rabbit polyclonal anti-OVA antibodies
Assay: cell-based or functional assay
Remark: another data set of the same source

IC50 (read off the curve); IL-6 secretion by MC/9 mast cells stimulated with anti-OVA/OVA immune complexes | Binder
~2 pmol | B1
~1 pmol | B2
~2 pmol | B3

Target: rabbit polyclonal anti-OVA antibodies
Assay: cell-based or functional assay
Remark: another data set of the same source

IC50 (read off the curve); MCP-1 secretion by MC/9 mast cells stimulated with anti-OVA/OVA immune complexes | Binder
~2 pmol | B1
~2 pmol | B2
~2 pmol | B3
